Laboratory results from publication PMC2760398.

Experiments:
[1] = molecular target: FKBP12-TEVct (118/119 sTEVp, C-terminal TEVp fragment fused to FKBP12) (not stated | tobacco etch virus); settings: scale: % of the median FRET efficiency of control cells
[2] = molecular target: Lyn11-FKBP12-sTEVp-CT (membrane-targeted FKBP12-TEVct of pBud-mem-sTEVp) (not stated | tobacco etch virus)
[3] = molecular target: FKBP12-TEVct (118/119 sTEVp, C-terminal TEVp fragment fused to FKBP12) (not stated | tobacco etch virus); settings: scale: % of the median FRET efficiency of control cells; remark: listed apart in the source
[4] = molecular target: Lyn11-FKBP12-sTEVp-CT (membrane-targeted FKBP12-TEVct of pBud-mem-sTEVp) (not stated | tobacco etch virus); settings: scale: % of the median FRET efficiency of control cells
[5] = molecular target: C34V-FKBP12-TEVct (not stated | tobacco etch virus); settings: scale: % of the median FRET efficiency of control cells
[6] = molecular target: Lyn11-FKBP12-sTEVp-CT (membrane-targeted FKBP12-TEVct of pBud-mem-sTEVp) (not stated | tobacco etch virus); settings: scale: % of the median FRET efficiency of control cells; remark: listed apart in the source
[7] = molecular target: FKBP12-TEVct (118/119 sTEVp, C-terminal TEVp fragment fused to FKBP12) (not stated | tobacco etch virus); settings: scale: % of the median FRET efficiency of control cells; remark: listed apart in the source
[8] = molecular target: FKBP12-TEVct (118/119 sTEVp, C-terminal TEVp fragment fused to FKBP12) (not stated | tobacco etch virus); settings: scale: % of the median FRET efficiency of control cells; remark: listed apart in the source

Substance: FRB-TEVnt (118/119 sTEVp, N-terminal TEVp fragment fused to FRB) (from UniProt P42346 2018-2114)
- background TEVp activity: median FRET efficiency of membrane-targeted mem-C34V (100 ng) in HeLa cells, 300-1000 ng pBud-sol-sTEVp, without rapamycin (98% at 300 ng, 89% at 1000 ng) [1]: 98
- inducible TEVp activity: median FRET efficiency of membrane-targeted mem-C34V (100 ng) in HeLa cells, 300-1000 ng pBud-sol-sTEVp, rapamycin (7% at 300 ng, 3% at 1000 ng) [1]: 7
- inducible TEVp activity: median degree of current inactivation 1-(I95ms/Imax) of EGFP-KV3.4 (1 µg RNA) in HEK-293 cells, 1-3 µg pBud-mem-sTEVp, rapamycin (0.31 at 1 µg, 0.53 at 3 µg) [2]: 0.53
- TEVp activity by fragment complementation: median FRET efficiency of the substrate C34V in HeLa cells, 450 ng of each 118/119 sTEVp plasmid, 100 nM rapamycin for 3 hours at 37°C [3]: 3
- background TEVp activity: median FRET efficiency of the substrate C34V in HeLa cells, 450 ng of each 118/119 sTEVp plasmid, without rapamycin [3]: 83
- background TEVp activity: median FRET efficiency of soluble C34V (100 ng) in HeLa cells, 300-1000 ng pBud-mem-sTEVp, without rapamycin (no significant difference from control) [4]: 100
- inducible TEVp activity: median FRET efficiency of soluble C34V (100 ng) in HeLa cells, 300-1000 ng pBud-mem-sTEVp, rapamycin (30% at 300 ng, 12% at 1000 ng) [4]: 30
- background TEVp activity in cis: median FRET efficiency of C34V-FKBP12-TEVct (300 ng) in HeLa cells with 25 ng FRB-TEVnt, without rapamycin (significant decrease at 25 ng FRB-TEVnt and above) [5]: 84
- inducible TEVp activity in cis: median FRET efficiency of C34V-FKBP12-TEVct (300 ng) in HeLa cells with 25 ng FRB-TEVnt, rapamycin for 3 hours (significant reduction also at 12 and 100 ng FRB-TEVnt) [5]: 0
- background TEVp activity: median FRET efficiency of membrane-targeted mem-C34V in HeLa cells, 300-1000 ng pBud-mem-sTEVp, without rapamycin (56% at 300 ng, 46% at 1000 ng) [6]: 56
- inducible TEVp activity: median FRET efficiency of membrane-targeted mem-C34V in HeLa cells, 300-1000 ng pBud-mem-sTEVp, rapamycin for 3 hours [6]: < 4
- TEVp activity by fragment complementation: median FRET efficiency of the substrate C34V in HeLa cells, 125 ng sTEVp, rapamycin for 3 hours [7]: 3
- background TEVp activity: median FRET efficiency of the substrate C34V in HeLa cells, 125 ng sTEVp (optimum of a titration of the plasmid mass from 40 ng upwards), without rapamycin [7]: 96
- background TEVp activity: median FRET efficiency of soluble C34V (100 ng) in HeLa cells, 300-1000 ng pBud-sol-sTEVp, without rapamycin (97% at 300 ng, 84% at 1000 ng) [8]: 97
- inducible TEVp activity: median FRET efficiency of soluble C34V (100 ng) in HeLa cells, 300-1000 ng pBud-sol-sTEVp, 100 nM rapamycin for 3 hours (9% at 300 ng, 3% at 1000 ng) [8]: 9
